Assay results published in publication PMC3575409, “Identification of a Novel Protein-Protein Interaction Motif Mediating Interaction of GPCR-Associated Sorting Proteins with G Protein-Coupled Receptors” (PLoS ONE, 2013).

Key:
Assay type in all cases: binding
[1] = test system: GST-fused IGF1 (insulin growth factor I receptor) C-tail; experiment: GST-pull down, IGF1 C-tail; conditions: non-GPCR control
Description: (§1) cDNAs encoding the cytoplasmic C-tail of 14 GPCRs and 2 one-transmembrane receptors were cloned into the pGEX-2T prokaryotic expression vector downstream the GST sequence. The following pGEX constructs were engineered: pGEX-DOR encoding residues 314–372 of the δ-opioid receptor (referring to Swiss-Prot accession number U10504), pGEX-MOR encoding residues 334–400 of the µ-opioid receptor (L29301), pGEX-KOR encoding residues 326–380 of the κ–opioid receptor (U17298), pGEX-ORL1 encoding residues 315–370 of the opioid receptor-like 1 (X77130), pGEX-M1 encoding residues 414–460 of the muscarinic M1 acetylcholine receptor (X52068), pGEX-M2 encoding residues 436–466 of the muscarinic M2 acetylcholine receptor (M16404), pGEX- ADRB1 encoding residues 373–477 of the β1 adrenergic receptor (J03019), pGEX-ADRB2 encoding residues 322–413 of the β2 adrenergic receptor (P07550), pGEX-CALCR encoding residues 407–490 of the calcitonin receptor (L00587), pGEX-CNR2 encoding residues 295–360 of the cannabinoid type 2 receptor (P34972), pGEX-5HT7 encoding residues 380–445 of the 5-hydroxytryptamine 7 receptor (L21195), pGEX-H2 encoding residues 284–349 of the histamine 2 receptor (S57565), pGEX-TXA2 encoding residues 304–343 of the α isoform of the thromboxane A2 receptor (D38081), pGEX-FZ4 encoding residues 493–537 of the frizzled 4 receptor (AB032417), pGEX-TGFβ encoding residues 805–849 of the type III transforming growth factor b receptor (L07594), pGEX-IGF1 encoding residues 1268–1367 of the insulin growth factor I receptor (X04434). Free GST was produced by using the pGEX-4T3 expression vector without insert. The same plasmid was used to clone the cDNA encoding a central domain of GASP-1, corresponding to amino acids 380 to 1073, downstream the GST sequence. All these plasmids were transformed into the Escherichia coli BL21 strain and expression was induced using 1mM of isopropylthiogalactoside for 2 h at 37°C. Bacteria were then pelleted, resuspended in PBS supplemented with cOmplete protease inhibitors (Roche), lysed at 1.5 kbar using a basic Z cell disrupter (constant system) and finally the lysates were cleared by centrifugation (10,000g, 15 min, 4°C).
(§2) cDNAs encoding GASP-1 and GASP-2 were cloned into the pcDNA3 eukaryotic expression vectors. cDNAs encoding GASP-3, -6, -7, and -9 were subcloned into pcDNA3.1 vectors. All the clones were controlled by DNA sequencing. The in vitro production was performed by using the TNT Quick-coupled Transcription/Translation T7 kit (Promega) in presence of [^35S]-Methionine according to the instructions from the manufacturer.
(§3) GST-fusion proteins were immobilized on glutathione-coupled Sepharose beads (GE Healthcare) for 1 h at 4°C and incubated with [^35S]-labelled in vitro translated GASP proteins or their truncated or mutated forms in ice-cold binding buffer containing: 20 mM Tris-HCl pH 7.4, 150 mM NaCl, 1 mM EDTA, 1 mM DTT, 10% glycerol and 1% Triton X-100. The mixture was incubated for 1 h at 4°C with gentle rocking. The beads were washed five times with the same ice-cold buffer, resuspended in 30 µl SDS-PAGE sample buffer, incubated 10 min at 65°C, and pelleted for 60 s at 3000 g. The supernatants were then analyzed by SDS-PAGE, the gels were stained with Coomassie blue to visualize GST-fusion proteins, dried and analyzed using a Phosphor-imager (Personal Molecular Imager FX, Biorad) to visualize [^35S]-labelled GASPs. Quantification was performed with the Quantity One software (Biorad). GST-pull down quantification data were analyzed using GraphPad Prism 4.03 (GraphPad Software). Quantifications presented are means of at least three independent experiments.

[2] = test system: GST-fused TGFβ (type III transforming growth factor β receptor) C-tail; experiment: GST-pull down, TGFβ C-tail; conditions: non-GPCR control
Description: as §1, §2, §3

[3] = test system: GST-fused GPCR C-tails; experiment: GST-pull down, GPCR C-tails; conditions: for interaction with GPCR C-tails: twelve GPCR C-tails
Description: as §1, §2
as §3, with “experiments. […]” for “experiments.”

[4] = test system: GST-fused M1 C-tail; experiment: GST-pull down, M1 C-tail; conditions: compared with full-length GASP-1
Description: as §1, §2, §3

[5] = test system: GST-fused DOR C-tail; experiment: GST-pull down, DOR C-tail; conditions: compared with full-length GASP-1
Description: as §1, §2, §3

[6] = test system: GST-fused ADRB1 C-tail; experiment: GST-pull down, ADRB1 C-tail; conditions: compared with full-length GASP-1
Description: as §1, §2, §3

Row | interaction with IGF1 C-tail [1] | interaction with TGFβ C-tail [2] | Molecule | interaction with GPCR C-tails [3] | interaction of truncated GASP-1 with DOR C-tail [5] | also measured
1 | no interaction was detected | no interaction was detected | GASP-2: member of the GASP family, two GASP motifs (protein, [35S]-methionine labelled) MTGAEIEPSAQAKPEKKAGEEVIAGPERENDVPLVVRPKVRTQATTGARPKTETKSVPAARPKTEAQAMSGARPKTEVQVMGGARPKTEAQGITGARPKTDARAVGGARSKTDAKAIPGARPKDEAQAWAQSEFGTEAVSQAEGVSQTNAVAWPLATAESGSVTKSKGLSMDRELVNVDAETFPGTQGQKGIQPWFGPGEETNMGSWCYSRPRAREEASNESGFWSADETSTASSFWTGEETSVRSWPREESNTRSRHRAKHQTNPRSRPRSKQEAYVDSWSGSEDEASNPFSFWVGENTNNLFRPRVREEANIRSKLRTNREDCFESESEDEFYKQSWVLPGEEANSRFRHRDKEDPNTALKLRAQKDVDSDRVKQEPRFEEEVIIGSWFWAEKEASLEGGASAICESEPGTEEGAIGGSAYWAEEKSSLGAVAREEAKPESEEEAIFGSWFWDRDEACFDLNPCPVYKVSDRFRDAAEELNASSRPQTWDEVTVEFKPGLFHGVGFRSTSPFGIPEEASEMLEAKPKNLELSPEGEEQESLLQPDQPSPEFTFQYDPSYRSVREIREHLRARESAESESWSCSCIQCELKIGSEEFEEFLLLMDKIRDPFIHEISKIAMGMRSASQFTRDFIRDSGVVSLIETLLNYPSSRVRTSFLENMIHMAPPYPNLNMIETFICQVCEETLAHSVDSLEQLTGIRMLRHLTMTIDYHTLIANYMSGFLSLLTTANARTKFHVLKMLLNLSENPAVAKKLFSAKALSIFVGLFNIEETNDNIQIVIKMFQNISNIIKSGKMSLIDDDFSLEPLISAFREFEELAKQLQAQIDNQNDPEVGQQS | medium to strong interactions | – | GASP input retained by GPCR C-tails ([3]; percent of GASP input): > 10%
2 | – | – | mutant 380–1395: truncated mutant of GASP-1 that lacks the N-terminal part (protein, [35S]-methionine labelled) MTKEEAKTKARARAKQEARSEEEALIGTWFWATDESSMADEASIESSLQVEDESIIGSWFWTEEEASMGTGASSKSRPRTDGERIGDSLFGAREKTSMKTGAEATSESILAADDEQVIIGSWFWAGEEVNQEAEEETIFGSWFWVIDAASVESGVGVSCESRTRSEEEEVIGPWFWSGEQVDIEAGIGEEARPGAEEETIFGSWFWAENQTYMDCRAETSCDTMQGAEEEEPIIGSWFWTRVEACVEGDVNSKSSLEDKEEAMIPCFGAKEEVSMKHGTGVRCRFMAGAEETNNKSCFWAEKEPCMYPAGGGSWKSRPEEEEDIVNSWFWSRKYTKPEAIIGSWLWATEESNIDGTGEKAKLLTEEETIINSWFWKEDEAISEATDREESRPEAEEGDIIGSWFWAGEEDRLEPAAETREEDRLAAEKEGIVGSWFGAREETIRREAGSCSKSSPKAEEEEVIIGSWFWEEEASPEAVAGVGFESKPGTEEEEITVGSWFWPEEEASIQAGSQAVEEMESETEEETIFGSWFWDGKEVSEEAGPCCVSKPEDDEEMIVESWFWSRDKAIKETGTVATCESKPENEEGAIVGSWFEAEDEVDNRTDNGSNCGSRTLADEDEAIVGSWFWAGDEAHFESNPSPVFRAICRSTCSVEQEPDPSRRPQSWEEVTVQFKPGPWGRVGFPSISPFRFPKEAASLFCEMFGGKPRNMVLSPEGEDQESLLQPDQPSPEFPFQYDPSYRSVQEIREHLRAKESTEPESSSCNCIQCELKIGSEEFEELLLLMEKIRDPFIHEISKIAMGMRSASQFTRDFIRDSGVVSLIETLLNYPSSRVRTSFLENMIRMAPPYPNLNIIQTYICKVCEETLAYSVDSPEQLSGIRMIRHLTTTTDYHTLVANYMSGFLSLLATGNAKTRFHVLKMLLNLSENLFMTKELLSAEAVSEFIGLFNREETNDNIQIVLAIFENIGNNIKKETVFSDDDFNIEPLISAFHKVEKFAKELQGKTDNQNDPEGDQEN | – | interacted similarly | interaction of truncated GASP-1 with M1 C-tail (words) [4]: interacted similarly; interaction of truncated GASP-1 with ADRB1 C-tail (words) [6]: interacted similarly
3 | – | – | mutant C: derived from mutant 924–1395 by deletion of 45 AA from the C-terminus (protein, UniProt Q5JY77 924-1350, looked up, fragment) CCVSKPEDDEEMIVESWFWSRDKAIKETGTVATCESKPENEEGAIVGSWFEAEDEVDNRTDNGSNCGSRTLADEDEAIVGSWFWAGDEAHFESNPSPVFRAICRSTCSVEQEPDPSRRPQSWEEVTVQFKPGPWGRVGFPSISPFRFPKEAASLFCEMFGGKPRNMVLSPEGEDQESLLQPDQPSPEFPFQYDPSYRSVQEIREHLRAKESTEPESSSCNCIQCELKIGSEEFEELLLLMEKIRDPFIHEISKIAMGMRSASQFTRDFIRDSGVVSLIETLLNYPSSRVRTSFLENMIRMAPPYPNLNIIQTYICKVCEETLAYSVDSPEQLSGIRMIRHLTTTTDYHTLVANYMSGFLSLLATGNAKTRFHVLKMLLNLSENLFMTKELLSAEAVSEFIGLFNREETNDNIQIVLAIFENIGNNIK | – | strong interaction | –
4 | – | – | mutant D: derived from mutant 924–1395 by deletion of 95 AA from the C-terminus (protein, UniProt Q5JY77 924-1300, looked up, fragment) CCVSKPEDDEEMIVESWFWSRDKAIKETGTVATCESKPENEEGAIVGSWFEAEDEVDNRTDNGSNCGSRTLADEDEAIVGSWFWAGDEAHFESNPSPVFRAICRSTCSVEQEPDPSRRPQSWEEVTVQFKPGPWGRVGFPSISPFRFPKEAASLFCEMFGGKPRNMVLSPEGEDQESLLQPDQPSPEFPFQYDPSYRSVQEIREHLRAKESTEPESSSCNCIQCELKIGSEEFEELLLLMEKIRDPFIHEISKIAMGMRSASQFTRDFIRDSGVVSLIETLLNYPSSRVRTSFLENMIRMAPPYPNLNIIQTYICKVCEETLAYSVDSPEQLSGIRMIRHLTTTTDYHTLVANYMSGFLSLLATGNAKTRFHVLKML | – | completely lost | –
5 | No interaction was detected | No interaction was detected | GASP-7: member of the second GASP subfamily, without GASP motif (protein, [35S]-methionine labelled) MGRTREAGCVAAGVVIGAGACYCVYRLAWGRDENEKIWDEDEESTDTSEIGVETVKGAKTNAGAGSGAKLQGDSEVKPEVSLGLEDCPGVKEKAHSGSHSGGGLEAKAKALFNTLKEQASAKAGKGARVGTISGNRTLAPSLPCPGGRGGGCHPTRSGSRAGGRASGKSKGKARSKSTRAPATTWPVRRGKFNFPYKIDDILSAPDLQKVLNILERTNDPFIQEVALVTLGNNAAYSFNQNAIRELGGVPIIAKLIKTKDPIIREKTYNALNNLSVNAENQGKIKTYISQVCDDTMVCRLDSAVQMAGLRLLTNMTVTNHYQHLLSYSFPDFFALLFLGNHFTKIQIMKLIINFTENPAMTRELVSCKVPSELISLFNKEWDREILLNILTLFENINDNIKNEGLASSRKEFSRSSLFFLFKESGVCVKKIKALANHNDLVVKVKVLKVLTKL | weak to medium interactions and weak | – | –
